This assay deals with anti-VEEV human IgG1 antibody F5 with the loss of function Fc mutations L234A and L235A (hF5-LALA) (human). Put plainly: ELISA.

Turning to “mouse complement component C1q from normal mouse serum (from UniProt P98086;P14106;Q02105) (complex)”, the fold reduction in binding against hF5-WT at 2.8 µg/ml was 5.1 fold.

(Values after article PMC10766394.)
